These results are taken from patent publication US11278600B2, “Human alpha-galactosidase variants” (Codexis, Inc., priority 2014, dated 2022).

Substitutions are numbered along the chain they refer to.

The chains are these.
B1: 398 (protein)
chain: LDNGLARTPTMGWLHWERFMCNLDCQEEPDSCISEKLFMEMAERMVSEGWKDAGYEYLCIDDCWMAPQRDSEGRLQADPQRFPHGIRQLANYVHSKGLKLGIYADVGNKTCAGFPGSFGYYDIDAQTFADWGVDLLKFDGCYCDSLENLADGYKHMSLSLNRTGRSIVYSCEWPLYMWPFQKPNYTEIRQYCNHWRNFADIDDSWKSIKSILDWTSRNQERIVDVAGPGGWNDPDMLVIGNFGLSWDQQVTQMALWAIMAAPLFMSNDLRHISPQAKALLQDKDVIAINQDPLGKQGYQLRKGDNFEVWERPLSGDAWAVAIINRQEIGGPRSYTIPVASLGKGVACNPACFITQLLPVKRQLGFYNWTSRLKSHINPTGTVLLQLENTMQMSLKDLL
modifications: Synthetic Polypeptide sequence of Variant No. 398 of mature Human GLA
B2: 399 (protein)
chain: B1 chain with S159A, R165K
modifications: Synthetic Polypeptide sequence of Variant No. 399 of mature Human GLA
B3: 407 (protein)
chain: B1 chain with L158H, S159A
modifications: Synthetic Polypeptide sequence of Variant No. 407 of mature Human GLA
B4: 405 (protein)
chain: B1 chain with L158E, S159A
modifications: Synthetic Polypeptide sequence of Variant No. 405 of mature Human GLA
B5: 403 (protein)
chain: B1 chain with S159A, S166G
modifications: Synthetic Polypeptide sequence of Variant No. 403 of mature Human GLA
B6: 402 (protein)
chain: B1 chain with S159A, S166P, K206A
modifications: Synthetic Polypeptide sequence of Variant No. 402
B7: 404 (protein)
chain: B1 chain with S159A, S166F
modifications: Synthetic Polypeptide sequence of Variant No. 404 of mature Human GLA
B8: 362 (protein)
chain: B1 chain with R44C, S159A
modifications: Synthetic Polypeptide sequence of Variant No. 362 of mature Human GLA
B9: 401 (protein)
chain: B1 chain with S159A, T163S
modifications: Synthetic Polypeptide sequence of Variant No. 401 of mature Human GLA
B10: 406 (protein)
chain: B1 chain with S159A, R162K
modifications: Synthetic Polypeptide sequence of Variant No. 406 of mature Human GLA
B11: 408 (protein)
chain: B1 chain with S159A, S166R
modifications: Synthetic Polypeptide sequence of Variant No. 408 of mature Human GLA
B12: 400 (protein)
chain: B1 chain with L158C, S159A
modifications: Synthetic Polypeptide sequence of Variant No. 400 of mature Human GLA

The nature of the first data set: HTP-analysis of supernatants pretreated with acid (MUGal hydrolysis). It counts as biochemical. As to conditions: activity of the variant/activity of Rd4BB (SEQ ID NO: 15); challenge at pH 3.7. Put shortly: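 Supernatants from INVSc1 yeast secreting GLA variants were challenged at 37° C. for 1-3 h in McIlvaine buffer at pH 3.3-4.3. Residual activity was then measured on 4 mM MUGal substrate stock at pH 4.8 with citrate buffer pH 4.3, over 30-180 min at 37° C. Reactions were quenched with sodium carbonate and read by fluorescence (Ex 355/Em 448 nm).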
In the case of B1, the “Relative Activity of GLA Variants After Challenge at pH 3.7” value (“Relative Activity … at pH 3.7” for short) is “++ (>1.5 to 2.5 relative activity over Rd4BB (SEQ ID NO: 15))”.

As for B2, the “Relative Activity … at pH 3.7” value was “+ (0.5 to 1.5 relative activity over Rd4BB (SEQ ID NO: 15))”.

For B3, the “Relative Activity … at pH 3.7” value is “+ (0.5 to 1.5 relative activity over Rd4BB (SEQ ID NO: 15))”.

Take B4: the “Relative Activity … at pH 3.7” value is reported as “++ (>1.5 to 2.5 relative activity over Rd4BB (SEQ ID NO: 15))”.

Consider B5, for which the “Relative Activity … at pH 3.7” value is “+ (0.5 to 1.5 relative activity over Rd4BB (SEQ ID NO: 15))”.

As to B6, the “Relative Activity … at pH 3.7” value was “++ (>1.5 to 2.5 relative activity over Rd4BB (SEQ ID NO: 15))”.

For the molecule B7, the “Relative Activity … at pH 3.7” value is recorded as “+ (0.5 to 1.5 relative activity over Rd4BB (SEQ ID NO: 15))”.

Take B8: the “Relative Activity … at pH 3.7” value is “+ (0.5 to 1.5 relative activity over Rd4BB (SEQ ID NO: 15))”.

As for B9, the “Relative Activity … at pH 3.7” value is reported as “+ (0.5 to 1.5 relative activity over Rd4BB (SEQ ID NO: 15))”.

As for B10, the “Relative Activity … at pH 3.7” value is on record as “+ (0.5 to 1.5 relative activity over Rd4BB (SEQ ID NO: 15))”.

B11: the “Relative Activity … at pH 3.7” value was “+ (0.5 to 1.5 relative activity over Rd4BB (SEQ ID NO: 15))”.

Turning to B12, the “Relative Activity … at pH 3.7” value is “+ (0.5 to 1.5 relative activity over Rd4BB (SEQ ID NO: 15))”.

The nature of the next data set: HTP-analysis of supernatants pretreated with base (MUGal hydrolysis). The data set is classed as biochemical. To be noted: activity of the variant/activity of Rd4BB (SEQ ID NO: 15); challenge at pH 9.65. Put shortly:
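GLA variants were secreted by transformed INVSc1 yeast grown 66-84 h at 30° C. Supernatants were exposed to neutral-to-basic buffers (pH 7.0-9.7) at 37° C for 1-18 h, then assayed with MUGal in acidic citrate/McIlvaine buffer, with fluorescence read after quenching.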
As for B1, the “Relative Activity of GLA Variants After Challenge at pH 9.65” value (shortened to “Relative Activity … at pH 9.65”) is on record as “− (<0.5 relative activity over Rd4BB (SEQ ID NO: 15))”.

Turning to B2, the “Relative Activity … at pH 9.65” value is listed as “+ (0.5 to 1.5 relative activity over Rd4BB (SEQ ID NO: 15))”.

For B3, the “Relative Activity … at pH 9.65” value is on record as “− (<0.5 relative activity over Rd4BB (SEQ ID NO: 15))”.

As to B4, the “Relative Activity … at pH 9.65” value is “+ (0.5 to 1.5 relative activity over Rd4BB (SEQ ID NO: 15))”.

As to B5, the “Relative Activity … at pH 9.65” value was “+ (0.5 to 1.5 relative activity over Rd4BB (SEQ ID NO: 15))”.

B6: the “Relative Activity … at pH 9.65” value was “+ (0.5 to 1.5 relative activity over Rd4BB (SEQ ID NO: 15))”.

As to B7, the “Relative Activity … at pH 9.65” value is recorded as “− (<0.5 relative activity over Rd4BB (SEQ ID NO: 15))”.

For the molecule B8, the “Relative Activity … at pH 9.65” value is reported as “+ (0.5 to 1.5 relative activity over Rd4BB (SEQ ID NO: 15))”.

Consider B9, for which the “Relative Activity … at pH 9.65” value is “− (<0.5 relative activity over Rd4BB (SEQ ID NO: 15))”.

For the molecule B10, the “Relative Activity … at pH 9.65” value is given as “+ (0.5 to 1.5 relative activity over Rd4BB (SEQ ID NO: 15))”.

Take B11: the “Relative Activity … at pH 9.65” value was “+ (0.5 to 1.5 relative activity over Rd4BB (SEQ ID NO: 15))”.

As for B12, the “Relative Activity … at pH 9.65” value is “− (<0.5 relative activity over Rd4BB (SEQ ID NO: 15))”.

A further data set can be described thus: HTP-analysis of yeast culture supernatants, no challenge (MUGal hydrolysis). It counts as biochemical. As to conditions: activity of the variant/activity of Rd4BB (SEQ ID NO: 15). Summed up: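 Activity read as 4-methylumbelliferyl α-D-galactopyranoside hydrolysis: fluorescence (355/448 nm) after sodium carbonate stop, following 30-180 min at 37° C with 2 mM MUGal stock at pH 4.6–4.8. Enzyme source is unchallenged culture supernatant of INVSc1 yeast expressing GLA variants, grown 66-84 h at 30° C.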
For the molecule B1, the “Relative Activity of GLA Variants After No Challenge (NC)” value is “+ (0.5 to 1.5 relative activity over Rd4BB (SEQ ID NO: 15))”.

For the molecule B2, the “Relative Activity of GLA Variants After No Challenge (NC)” value was “+ (0.5 to 1.5 relative activity over Rd4BB (SEQ ID NO: 15))”.

In the case of B3, the “Relative Activity of GLA Variants After No Challenge (NC)” value is reported as “+ (0.5 to 1.5 relative activity over Rd4BB (SEQ ID NO: 15))”.

On to B4, for which the “Relative Activity of GLA Variants After No Challenge (NC)” value is on record as “+ (0.5 to 1.5 relative activity over Rd4BB (SEQ ID NO: 15))”.

On to B5, for which the “Relative Activity of GLA Variants After No Challenge (NC)” value is recorded as “+ (0.5 to 1.5 relative activity over Rd4BB (SEQ ID NO: 15))”.

For B6, the “Relative Activity of GLA Variants After No Challenge (NC)” value is reported as “+ (0.5 to 1.5 relative activity over Rd4BB (SEQ ID NO: 15))”.

Turning to B7, the “Relative Activity of GLA Variants After No Challenge (NC)” value is on record as “+ (0.5 to 1.5 relative activity over Rd4BB (SEQ ID NO: 15))”.

Take B8: the “Relative Activity of GLA Variants After No Challenge (NC)” value is on record as “+ (0.5 to 1.5 relative activity over Rd4BB (SEQ ID NO: 15))”.

In the case of B9, the “Relative Activity of GLA Variants After No Challenge (NC)” value is “+ (0.5 to 1.5 relative activity over Rd4BB (SEQ ID NO: 15))”.

On to B10, for which the “Relative Activity of GLA Variants After No Challenge (NC)” value is “+ (0.5 to 1.5 relative activity over Rd4BB (SEQ ID NO: 15))”.

With B11, the “Relative Activity of GLA Variants After No Challenge (NC)” value is recorded as “+ (0.5 to 1.5 relative activity over Rd4BB (SEQ ID NO: 15))”.

On to B12, for which the “Relative Activity of GLA Variants After No Challenge (NC)” value is listed as “+ (0.5 to 1.5 relative activity over Rd4BB (SEQ ID NO: 15))”.
